Among the data in publication PMC4818545 are Kd values, retold here.

A word on the Kd: it is the constant that tells how readily two partners part at equilibrium.

In experiment [1] the target is recombinant (β15–66)2 fragment. Nature of the experiment: ELISA.
Experiment [2] deals with recombinant (β15–66)2 fragment. The experiment is described as follows: ELISA. The source holds these as a separate data set. (In general: ELISA stands for enzyme-linked immunosorbent assay.)
Experiment [3] concerns the target recombinant (β15–66)2 fragment. The experiment is described as follows: ELISA. The source holds these as a separate data set.
A further experiment has as its target VLDLR(2–3)HT (human) (UniProt P98155). The experiment is described as follows: SPR. A general note: In SPR one partner is held on a chip, and binding of the other changes the refractive index at the surface.
The target of another experiment is VLDLR(1–4)HT (human) (UniProt P98155). The experiment is described as follows: SPR.
The target in the next experiment is VLDLR(2–4)HT (human) (UniProt P98155). The experiment is described as follows: SPR.
The target of another experiment is VLDLR(1–8)HT (human) (UniProt P98155). The experiment is described as follows: SPR.
Experiment [4] concerns the target fibrin (β15-66)2 fragment 15-66 (Homo sapiens) (UniProt P02675). Nature of the experiment: ELISA. The settings on record: cited from earlier work.
Chain of UniProt P02675 (P02675 15-66): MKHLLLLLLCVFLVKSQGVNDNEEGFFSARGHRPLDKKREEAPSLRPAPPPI

Read-outs that look alike come from different tables or passages of the source.

Take “VLDLR(1–4)HT (from UniProt P98155 28-190) (domain or fragment)”: the Kd in experiment [1] was determined as 60 nM.
On to “VLDLR(1–8)HT (from UniProt P98155 28-355) (domain or fragment)”, for which the Kd in experiment [2] was 21 nM; in experiment [1], 16.3 nM; in experiment [3], 3.4 nM.
For the substance “VLDLR(2–3)HT (from UniProt P98155 69-151) (domain or fragment)”, the Kd in experiment [1] was 78 nM.
For “recombinant (β15–66)2 fragment (domain or fragment)”, the equilibrium dissociation constant (Kd) with VLDLR(2–3)HT (human) amounted to 9.5 nM; with VLDLR(1–4)HT (human), 3.7 nM; in the experiment with VLDLR(2–4)HT (human), 4.6 nM; in the experiment with VLDLR(1–8)HT (human), 3.1 nM.
In the case of sVLDLR ECD (from UniProt P98155), the Kd in experiment [4] was 5.7 nM.
For “soluble form of human VLDL receptor, sVLDLRHT (from UniProt P98155 28-797)”, the Kd in experiment [1] turned out to be 16.4 nM; in experiment [3], 2.5 nM.
